Reference: article doi:10.1101/2023.06.05.543781

How the values were obtained:
[1] = molecular target: VAMP2 (mouse) (UniProt P63044)
[2] = molecular target: Syntaxin1 (rat) (UniProt P32851)
[3] = molecular target: Munc13-1 C1-C2B-MUN-C2C domain (rat) (UniProt Q62768)

UniProt P63044, sequence (P63044 whole entry): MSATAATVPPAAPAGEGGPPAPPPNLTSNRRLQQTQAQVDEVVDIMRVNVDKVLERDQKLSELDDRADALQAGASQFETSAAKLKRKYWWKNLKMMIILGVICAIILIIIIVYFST
UniProt P32851, sequence (P32851 whole entry, the tested form may be a part): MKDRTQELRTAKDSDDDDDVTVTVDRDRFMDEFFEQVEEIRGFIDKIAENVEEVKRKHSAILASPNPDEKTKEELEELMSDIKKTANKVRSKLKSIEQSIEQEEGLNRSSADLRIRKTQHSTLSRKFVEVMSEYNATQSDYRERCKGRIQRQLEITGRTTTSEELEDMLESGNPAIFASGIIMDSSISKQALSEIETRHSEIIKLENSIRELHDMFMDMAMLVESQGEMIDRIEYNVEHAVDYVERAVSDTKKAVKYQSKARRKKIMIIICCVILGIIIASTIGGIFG

Substance: Munc13-1 C1-C2B-MUN-C2C domain D1358K (from UniProt Q62768 529-1407; Q62768 1453-1735) (domain or fragment)
- Ca^2+ (100 μM)-evoked fusion of the immobile, clamped vesicles, with 500 nM DHG [1]: 20%

Substance: Munc13-1 C1-C2B-MUN-C2C domain N1128A/F1131A (from UniProt Q62768 529-1407; Q62768 1453-1735) (domain or fragment)
- Ca^2+ (100 μM)-evoked fusion of the immobile, clamped vesicles, with 500 nM DHG [2]: 20%

Substance: SNAP25 linker mutant with residues 113-138 replaced by a GGGGS repeat sequence (from UniProt P60879 1-112; P60879 139-206) (natural protein)
- Ca^2+ (100 μM)-evoked fusion of the immobile, clamped vesicles, with 500 nM DHG [3]: 20%
